Measured values from US6221617A, “Bioassay for growth hormone releasing hormone” (priority 1997, dated 2001).
Read-outs that look alike come from different tables or passages of the source.

Key:
[1] = tested on: rat anterior pituitary cell cultures; assay: Rat primary anterior pituitary cell bioassay (GH release, radioimmunoassay); format: cell-based
Description: Rat anterior pituitary cell cultures were prepared for measuring the biological activity of GHRH, GHRH-induced release of GH was quantified using radioimmunoassay. Anterior pituitaries from fifteen female Sprague-Dawley rats were placed in a solution of Gey's media supplemented with 1% BSA, 0.25% glucose, and 0.2 mM MEM non essential amino acids at pH 7.4. Cell dispersion was performed in a solution of 400 U/ml trypsin in supplemented Gey's media for 30 minutes, 1750 KU/ml DNase-I in supplemented Gey's media for 5 minutes, and cells were triturated 15-30 times in 0.6 mg/ml lima bean trypsin inhibitor in supplemented Gey's media. Cells were filtered thru 160 u and 100 u mesh and centrifuged for 3 minutes at 1100 RPM and 12 minutes at 1600 rpm. Cell pellet was suspended at 3×10^5 cells/ml in DMEM supplemented with 10% fresh rat serum, 3% horse serum, 2.5% fetal calf serum, 2% Antibiotic-Antimycotic, 0.3% Fungizone, 0.45% glucose, 25 mM Hepes, 4 mM glutamine, 1 mM sodium pyruvate, 1 nM 3,3',5-triiodo-L -thyronine (T3), 100 nM dexamethazone and 10 uM MEM non essential amino acids. Cells were plated at 1 ml/well in 24 well plates and incubated at 8% CO2 at 37 C. for 68-72 hours. To stimulate cells with hormones, cells were washed three times in Gey's media supplemented with 1% BSA, 0.45% glucose and 25 mM Hepes. GHRH (1-44)NH2 was added to cells in 1 ml of supplemented Gey's media and cells were incubated for 3 hours before collecting media. Rat growth hormone levels were quantitated using a radioimmunoassay kit (Amersham).
(§1) Predicted variances in SEAP responses=0.32×(Y)^154.

[2] = molecular target: T1, porcine GHRH receptor (Sus scrofa, UniProt P34999)
T1 sequence (P34999 23-423): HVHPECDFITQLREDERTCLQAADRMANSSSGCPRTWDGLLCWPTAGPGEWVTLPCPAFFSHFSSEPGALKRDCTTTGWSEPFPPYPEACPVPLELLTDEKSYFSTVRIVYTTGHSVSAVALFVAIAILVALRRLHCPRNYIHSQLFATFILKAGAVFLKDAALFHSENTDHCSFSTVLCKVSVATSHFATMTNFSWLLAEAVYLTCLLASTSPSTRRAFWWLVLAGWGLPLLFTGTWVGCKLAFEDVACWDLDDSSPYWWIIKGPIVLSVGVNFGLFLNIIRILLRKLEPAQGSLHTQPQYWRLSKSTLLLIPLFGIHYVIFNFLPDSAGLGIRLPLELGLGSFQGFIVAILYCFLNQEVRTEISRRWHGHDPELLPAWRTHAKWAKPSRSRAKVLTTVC
Description: Assays for secreted alkaline phosphatase (SEAP) were performed using the chemiluminescent substrate in the Great Escape Detection Kit (Clontech). Culture medium was centrifuged at 14000 rpm in a microfuge centrifuge to remove cell debris. One hundred microliters of culture medium was then added to 300 ul of dilution buffer and heated at 65 C. for 30 minutes. Samples were cooled to room temperature and 100 ul of diluted sample was added to 100 ul of assay buffer. Samples were allowed to set for 5 minutes. One hundred microliters of the CSPD substrate solution was then added to each sample, incubated in the dark for 10 minutes and read on a Wallac LKB 1251 tube luminometer.
A stable transfection was performed in pGHRHr/293 cells using the cAMP-responsive SEAP reporter construct, pha180SEAPpur and stable transfectants were selected on the basis of puromycin resistance. pha180SEAPpur was transfected into pGHRHr/293 cells at 1, 2, 4, 8 and 16 ug/ml Opti-MEM using 8 ul of Lipofectin/ml in six well culture plates. After six hours, 1 ml of 20% fetal calf serum in DME (high glucose) was added to the cells. Twenty-four hours post-transfection the cells were subcultured 1:18 and were incubated in 250 ug/ml G418. Forty-eight hours post-transfection the media was replaced with selectable medium containing 250 ug/ml G418 and 1 ug/ml puromycin. Cells were incubated for three weeks and picked using Trypsin-EDTA treated Whatman 3MM paper and placed in 24 well plates. Upon growing stable isolates to confluency in T75 cm^2 culture flasks, pGHRHr/SEAP/293 cells were removed from flasks, plated in 24 well plates at 1×10^5 cells/well and stimulated with various doses of recombinant human GHRH (1-44)NH2. Media was collected and assayed for secreted placental alkaline phosphatase. Time course studies were performed over a 20 hour period to determine the optimal time to remove media samples from the tissue cultures during stimulation with GHRH. Comparisons of synthetic and recombinant human GHRH (1-44)NH2 (10^-13 to 10^-7 M) were also made. Data was analyzed using FOURFIT and ALLFIT, four parameter logistic curve fitting programs.
Sigmoidal dose response curves were fit by four parameter logistic curve fitting using FOURFIT (Grotjan and Steinberger, 1977), with multiple curves being compared using ALLFIT (DeLean et al.,1978). […] For cAMP and SEAP bioassays, a weighted regression analysis was performed with weights assigned as the reciprocal of predicted variance.

[3] = molecular target: T1, porcine GHRH receptor; assay: SEAP reporter expression in pGHRHr/293 cells transiently transfected with pha180SEAP; format: cell-based; design: host or cells: human fetal kidney 293 cells (pGHRHr/293), stably expressing, G418-selected; conditions: transiently transfected pGHRHr/293 cells, 6 hours
Description: Samples were allowed to set for 5 minutes.
The efficacy of the cAMP-responsive promoter was evaluated by transient transfection assays using 293 and pGHRHr/293 cells. Transiently transfected 293 cells were stimulated with 1 mM 8-bromo cAMP for 20 hours, while pGHRHr/293 cells were stimulated with various concentrations of recombinant human GHRH for 6 hours.
The ability of GHRH to stimulate the expression of the SEAP reporter cDNA was evaluated using pGHRHr/293 cells transiently transfected with pha180SEAP. Cells were incubated with various doses of GHRH(1-44)NH2 (10^-10 to 10^-6 M) for 6 hours and media was then assayed for SEAP activity.

[4] = molecular target: T1, porcine GHRH receptor; assay: cAMP accumulation assay of the pGHRHr/293 cell line; format: cell-based; design: host or cells: human fetal kidney 293 cells (pGHRHr/293), stably expressing, G418-selected; conditions: pGHRHr/293 cells, 45 minutes, 10^-12 to 10^-6 M
Description: The media was then replaced with DME containing 0.1% BSA and 0.1 mM 3-isobutyl-1-methyl-xanthine. Doses of recombinant human GHRH (1-44)NH2 doses, 1×10^-6 M to 1×10^-12 M, were added and the cells were incubated for 45 minutes at 37° C. They were lysed in 60% ethanol and cAMP levels were quantitated by an immunoassay kit (Amersham). After performing the cAMP EIA, data was analyzed using Fourfit, a four parameter logistic curve fitting program.
as §1

[5] = primary rat pituitary cell cultures, 3 hours
[6] = pGHRHr/SEAP/293 cells, 16 hour incubation

Row | Substance | ED50 of GH secretion [1, 5] | increase in GH secretion into the medium [1, 5] | potency relative to synthetic GHRH (times as potent) ([1]; rat pituitary bioassay) | calculated ED50 of SEAP dose-response curves ([2]; after 12, 14, 16 and 18 hours of exposure, not significantly different) | SEAP activity increase over the 12-16 hour time points ([2]; at 18 hours) | SEAP activity increase over the 12-16 hour time points ([2]; at 20 hours) | increase in SEAP activity ([2]; pGHRHr/SEAP/293 #815-4, between 12 and 18 hours of exposure) | calculated ED50 of SEAP expression [2, 6] | increase in SEAP expression ([2]; pGHRHr/SEAP/293 cells, 16 hour incubation, 10^-13 to 10^-7 M) | potency relative to synthetic GHRH (times as potent) ([2]; pGHRHr/SEAP/293 reporter bioassay, p<0.0001) | increase in the expression of the reporter protein (SEAP) ([3]; 10^-10 to 10^-6 M) | ED50 of SEAP reporter expression [3] | calculated ED50 of increase in intracellular cAMP concentration [4] | EC50 ([1]; primary rat pituitary cell cultures, 3 hours, read-out: ED50 of GH secretion) | increase in SEAP expression ([2]; human, pghrhr/seap/293 cells, 16 h) | minimal detectable dose [2, 6] | EC50 ([2]; read-out: calculated ED50 of SEAP expression, pGHRHr/SEAP/293 cells, 16 hour incubation)
1 | recombinant human GHRH (1-44)NH2: Recombinant human GHRH(1-44)NH2 obtained from BioNebraska, Inc. as a powder | 2.16±1.04×10^-10 M | 3.1 fold | 1.69±0.67 times | 0.261 nM | 1.3 fold | 1.7 fold | 4.8 fold | 4.26±0.28×10^-11 M | 9.1 fold | 1.83±0.13 times | 2.5 fold | 0.51 nM | 8.4±3.6×10^-9 M | – | – | – | –
2 | synthetic human GHRH (1-44)NH2: Synthetic human GHRH(1-44)NH2 purchased from Peninsula; reference preparation [reference compound] | – | – | – | – | – | – | – | – | – | – | – | – | – | 0.364 nM | 9.1 fold | 1.47 pM | 0.0778 nM
